Results reported in patent publication US20040170622A1, “Methods and compositions for modulating XBP-1 activity” (President and Fellows of Harvard College, priority 2002, published 2004).

Legend:
XBP-1^−/− B cells = assay: Ig production by retrovirally transduced XBP-1-/- primary B cells (ELISA); type: cell-based, mouse; conditions: LPS 10 μg/ml 72 h
Procedure: Assays to measure immunoglobulin or cytokine levels in culture supernatants were performed as described (e.g., Hodge et al., 1996 Immunity. 4:397-405 or Science. 1996 274:1903-5).
The XBP-1 cDNAs for the unspliced (XBP-1u/s) and the spliced (XBP-1s) forms were PCR-amplified from the total RNA of untreated and tunicamycin treated NIH3T3 cells, respectively, with a primer set (5′-[…]-3′ (SEQ ID NO: 7) and 5′-[…]-3′) (SEQ ID NO: 8). XBP-1u form was generated by a PCR-based mutagenesis from XBP-unspliced/s cDNA so that the two G residues at position 532 and 535 were changed to A without changing amino acid sequences in the XBP-1u open reading frame. Numbers are based on the sequences from gene bank database (NM_013842 [gi:13775155]). These XBP-1 cDNAs were inserted into the GFP-RV retroviral vector by using blunt end ligation (Sambrook et al., 1989). EFFECTENE transfection (Quiagen) was used to introduce the DNA into the Phoenix cell line as described by manufacturer (e.g., Reimold et al., 2001 Nature. 412:300-7 or Int Immunol. 2001 13:241-8). Viral supernatants were harvested after 48 hours and frozen at −80° C. for later use. B cells were purified from mouse spleens using CD43 depletion or positive selection with B220+ magnetic beads as described by the manufacturer (MidiMacs, Miltenyi Biotech). B cell purity was generally near 95% as confirmed by flow cytometry. The B cells (10^6 cells /ml) were then activated in culture with LPS 10 μg/ml and F (ab′)2 anti-IgM (5 μg/ml Southern Biotechnology Associates Inc.) for 24 hours. The 1 ml of activated B cells (10^6 cells/ml) were mixed with 4 μg of polybrene and 1 ml of virus-containing supernatant and spun at 1000 g for 45 minutes at 24° C. Cells were incubated for 24-36 h at 37° C. and then GFP+ cells were flow sorted and returned to culture with and without stimulation.
The effects of these three different forms of XBP-1 on Ig secretion were compared in wild type and XBP-1^−/− B cells. In vitro activated splenic B cells were transduced using retroviruses expressing bicistronic mRNA encoding XBP-1u/s, XBP-1s, XBP-1u or control GFP. In FIGS. 5(A) and (B) purified B cells from wt and XBP-1^−/− mice were activated in culture with LPS 10 μg/ml and F (ab′)2 anti-IgM (5 μg/ml) for 24 hours. Retroviral transduction with GFP alone (GFP-Rv), XBP-1u/s (XBP-1u/s GFP Rv), XBP-1s (XBP-1s GFP Rv) or XBP-1u (XBP-1u GFP Rv) of activated B cells was performed. Cells were incubated for 24-36 h at 37° C. and then GFP+ cells were flow sorted and then returned to culture with LPS stimulation (10 μg/ml) for 72 h. IgM panel(A) and IgG2b panel (B) production analyzed by ELISA from culture supernatants of stimulated B cells. Experiments were done at least three times and standard deviation is shown.

UPR target genes = assay: Genes induced by XBP-1s in MEF-tet-off-XBP-1s cells (gene array, Northern blot); type: cell-based; conditions: doxycycline removed for three days
Procedure: XBP-1s expression was induced by culturing the cells for three days in doxycycline free media or by treating with Tm for the indicated time. […] Total RNA was also prepared to measure the expression level of BiP, CHOP, ERdj4, p58^ipk and ATF6α mRNA. (B) Additional XBP-1 dependent target genes identified in gene profiling experiments (Table 2) confirmed by Northern analysis in both XBP-1s MEF-tet-off and XBP-1^−/− MEFs. Ethidium bromide staining of the gels before blotting are shown at the bottom.
293T and MEF cells derived from wild type and XBP-1^−/− embryos were cultured in DMEM supplemented with 10% fetal calf serum (Hyclone Laboratories). MEF-tet-off cells (Clontech) were maintained in the same media with the addition of 100 μg/ml G418 and 1 μg/ml doxycycline. XBP-1s inducible cells were obtained by transfecting MEF-tet-off cells with the TREhyg-XBP-1s plasmid and then selecting in the presence of 400 μg/ml hygromycin B. Several clones were tested for doxycycline-dependent XBP-1s expression, and one was selected for further experiments. MEF-dn-XBP cells were generated by transfecting MEF-tet-off cells with the TREhyg-dn-XBP plasmid. […] ATF6α and β knockdown MEF cells were generated by cotransfecting wild type MEF cells with U6-iATF6α and β and cmv-puromycin or transducing cells with retroviruses containing each RNAi vector.
Total RNA was isolated from MEF cells with TRIZOL reagent (Invitrogen, Carlsbad, Calif.). cDNA synthesis, hybridization and laser scanning of the array were carried out at the Gene Array Technology Center (Brigham and Women's Hospital, Boston, Mass.) with MG-U74A GeneChips which had 6,000 functionally characterized sequences and 6,000 ESTs from the UniGene database (Affymetrix, Santa Clara, Calif.) as recommended by Affymetrix. Data analysis was performed using Affymetrix GeneChip 3.1 software under default parameter setting.
To examine whether XBP-1 itself is sufficient to induce these UPR target genes, the tet-off system was used to establish a cell line in which the spliced form of XBP-1, XBP-1s, is placed downstream of a tetracycline dependent promoter. XBP-1s was induced by removing doxycycline in the culture medium for three days. […] To identify genes that were induced by XBP-1s, total RNAs were prepared from MEF-tet-off-XBP-1s cells cultured in the presence or absence of doxycycline and gene array analysis performed (Table 1). […] In addition, ˜23% of the total pool of analyzed UPR target genes were induced by XBP-1s, although the fold induction tended to be lower than upon Tm treatment. These UPR genes included Herp, BiP, Aremt, AW124049 EST and interferon beta. […] The expression of BiP, CHOP, ERdj4 and p58^ipk was confirmed by Northern blot analysis (FIG. 17A).

B1: XBP-1s: vector encoding only the spliced form of murine XBP-1, a protein of 371 aa (protein)
chain: MVVVAAAPSAATAAPKVLLLSGQPASGGRALPLMVPGPRAAGSEASGTPQARKRQRLTHLSPEEKALRRKLKNRVAAQTARDRKKARMSELEQQVVDLEEENHKLQLENQLLREKTHGLVVENQELRTRLGMDTLDPDEVPEVEAKGSGVRLVAGSAESAAGAGPVVTSPEHLPMDSDTVASSDSESDILLGILDKLDPVMFFKCPSPESASLEELPEVYPEGPSSLPASLSLSVGTSSAKLEAINELIRFDHVYTKPLVLEIPSETESQTNVVVKIEEAPLSSSEEDHPEFIVSVKKEPLEDDFIPELGISNLLSSSHCLRPPSCLLDAHSDCGYEGSPSPFSDMSSPLGTDHSWEDTFANELFPQLISV
secretion of IgM compared to control cells (XBP-1^−/− B cells): approximately ten-fold | ATF6α induction (UPR target genes): also induced by XBP-1s | BiP induction (UPR target genes): only marginally induced | CHOP induction (UPR target genes): not significantly induced | ERdj4 and p58ipk expression (UPR target genes): sufficient to induce ERdj4 and p58^ipk expression | share of analyzed UPR target genes induced (UPR target genes): ~23%
